# US20080274117A1
# Molecular target: DBD-TSSK2 (myc tagged): human TSSK2 ORF fused with the Gal4 DNA-binding domain (pGBK-TSSK2) (human)
# Assay: cell-based or functional assay
alpha-galactosidase activity as percentage of full length TSKS (% reduction against full length TSKS),alpha-galactosidase activity as percentage of full length TSKS (% of full length TSKS),Substance
75,–,"TSKS deletion mutant lacking the carboxyl terminus and second coiled-coil region, fused with the Gal4 activation domain (pGAD) (from UniProt P04386 768-881)"
–,5,"TSKS deletion mutant lacking the first 48 amino acids, fused with the Gal4 activation domain (pGAD) (from UniProt Q9UJT2 49-592)"
